Experimental data reported in US20020076719A1 (ROCKEFELLER UNIVERSITY, published 2002).
Each block holds one binder with its values, some of them ahead of it.

Tests used:
[1] = target: T1, hTRF2 dimerization domain (amino acid 45 to amino acid 246), LexA and GAD fusion proteins (human, UniProt Q15554 87-288); experiment: yeast 2-hybrid, b-galactosidase activity
T1 construct: Built both as a LexA and as a GAD fusion; also called dimerization domain of hTRF2; not shown: two-hybrid fusion partner, LexA or GAD depending on the construct (vectors pBTM116 and pACT2)
T1 sequence: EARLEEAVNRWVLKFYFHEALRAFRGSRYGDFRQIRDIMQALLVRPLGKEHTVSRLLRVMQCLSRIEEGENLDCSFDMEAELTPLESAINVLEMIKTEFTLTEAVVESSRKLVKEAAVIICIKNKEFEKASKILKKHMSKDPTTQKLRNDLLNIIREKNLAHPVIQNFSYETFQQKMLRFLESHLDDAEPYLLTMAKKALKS
Excerpt: (§1) FIG. 12: TRF2 interacts with TRF2 but not with TRF1. […] Values represent an average of three to nine independent transformants. FIG. 12B depicts in vitro translated ³⁵S-methionine labelled TRF1 and TRF2 proteins with or without an N-terminal FLAG tag (indicated above the lanes) were immunoprecipitated using the M2 anti-FLAG antibodies and analyzed by autoradiography.
Next the yeast 2-hybrid assay was used to determine whether the dimerization domains of TRF1 and TRF2 can interact. In a large number of trials, no convincing interactions between these proteins in two settings were detected (FIG. 12A). No activation occurred when the dimerization domain of TRF2 was probed for interactions with full length TRF1. In addition, no significant interactions were observed between fusion proteins containing the isolated TRF1 and TRF2 dimerization domains. The weak b-galactosidase activity detected with these proteins is probably due to the inherent slight transactivation activity of the TRF1 dimerization domain (FIG. 12A) which has been noted previously [Bianchi et al., supra, (1997)].

FLAG-tagged mTRF2ΔN-49 = target: T2, FLAG-tagged mTRF2ΔN-49 (mouse, UniProt O35144 94-541); experiment: gel-shift assay on extracts of transfected HeLa cells; level of the hTRF1 homodimer complex unaltered
T2 construct: also called mTRF2 DN-49; deletion mutant mTRF2ΔN-49
T2 sequence: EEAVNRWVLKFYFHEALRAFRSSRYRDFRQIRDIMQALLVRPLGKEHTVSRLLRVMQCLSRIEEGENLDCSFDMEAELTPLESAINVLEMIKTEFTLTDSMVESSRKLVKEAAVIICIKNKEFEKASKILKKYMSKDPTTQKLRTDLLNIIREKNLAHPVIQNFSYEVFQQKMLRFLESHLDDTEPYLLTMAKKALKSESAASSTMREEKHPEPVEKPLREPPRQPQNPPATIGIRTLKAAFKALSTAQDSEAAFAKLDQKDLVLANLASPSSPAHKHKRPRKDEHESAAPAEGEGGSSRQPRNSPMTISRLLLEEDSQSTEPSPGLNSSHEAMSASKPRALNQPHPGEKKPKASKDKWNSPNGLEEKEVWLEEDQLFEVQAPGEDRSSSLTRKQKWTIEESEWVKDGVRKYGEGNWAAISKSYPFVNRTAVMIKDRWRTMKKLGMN
Excerpt: This new activity was present in excess over the endogenous hTRF1 activity and could be super-shifted with the FLAG antibody (FIG. 10B, lane 4). The mTRF2ΔN-49 mutant protein was also found to localize to telomeric loci in transfected cells (see below). […] Acids Res., 24:1294-303 (1996)].
Absence of heterodimer formation was further corroborated by co-immunoprecipitation of in vitro translation products (FIG. 12B). […] The lack of heterodimerization is also consistent with the gel-shift assays on extracts from cells over-expressing mTRF2ΔN-49 (FIG. 10B). […] In similar experiments executed with FLAG-tagged hTRF 1, heterodimerization between the endogenous TRF1 and the transfected protein is consistently detected.

untagged mTRF2 = target: T3, untagged mTRF2 (mouse, UniProt O35144 46-541, limits assumed); experiment: co-immunoprecipitation of in vitro translated 35S-labelled proteins with M2 anti-FLAG antibody
T3 construct: In vitro translated and 35S-methionine labelled; also called mouse TRF2
T3 sequence: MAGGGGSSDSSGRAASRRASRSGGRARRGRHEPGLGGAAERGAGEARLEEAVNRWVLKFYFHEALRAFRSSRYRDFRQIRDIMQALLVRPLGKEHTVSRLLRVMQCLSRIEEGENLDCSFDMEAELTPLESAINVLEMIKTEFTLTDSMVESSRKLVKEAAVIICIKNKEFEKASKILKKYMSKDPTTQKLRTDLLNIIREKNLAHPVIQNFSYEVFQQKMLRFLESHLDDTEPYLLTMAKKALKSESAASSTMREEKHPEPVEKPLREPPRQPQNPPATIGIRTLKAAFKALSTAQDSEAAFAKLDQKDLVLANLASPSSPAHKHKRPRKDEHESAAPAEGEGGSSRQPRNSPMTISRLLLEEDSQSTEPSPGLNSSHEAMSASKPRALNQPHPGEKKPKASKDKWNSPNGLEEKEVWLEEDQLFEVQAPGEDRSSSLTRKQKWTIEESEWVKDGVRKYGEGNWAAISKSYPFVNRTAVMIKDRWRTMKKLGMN
Excerpt: as §1
Co-immunoprecipitation experiments. The human and mouse TRF1 constructs used were previously described [Chong et al., Science, 270:1663-1667 (1995); Broccoli et al., Hum. Mol. Genetics, 6:69-76 (1997); Bianchi et al., supra (1997)]. The FLAG-tagged mTRF2 and untagged mTRF2 were translated from cDNAs described above. ³⁵S-methionine labelled proteins [Chong et al., Science, 270:1663-1667 (1995); Broccoli et al., Hum. Mol. Genetics, 6:69-76 (1997); Bianchi et al., supra, (1997)] were immunoprecipitated using the M2 anti-FLAG antibody in buffer D (20 mM Hepes-KOH pH 7.9, 100 mM KCl, 20% glycerol, 0.2 mM EDTA, 0.2 mM EGTA, 0.1 % NP40, 0.1 % Triton-X-100, 0.5 mM DTT, 0.5 mM PMSF) followed by four washes in buffer D with detergents and two washes in buffer D without detergent. Pellets were suspended in SDS/PAGE loading buffer and resolved on a 9% SDS-polyacrylamide gel.

binding result [1]: no binding
B1: hTRF1 dimerization domain, LexA and GAD fusion proteins (other)
chain: LVAEAEAVAAGWMLDFLCLSLCRAFRDGRSEDFRRTRNSAEAIIHGLSSLTACQLRTIYICQFLTRIAAGKTLDAQFENDERITPLESALMIWGSIEKEHDKLHEEIQNLIKIQAIAVCMENGNFKEAEEVFERIFGDPNSHMPFKSKLLMIISQKDTFHSFFQHFSYNHMMEKIKSYVNYVLSEKSSTFLMKAAAKV
notes: also called isolated TRF1 dimerization domain; homodimerization domain of TRF1; not shown: two-hybrid fusion partner, LexA or GAD

binding result (FLAG-tagged mTRF2ΔN-49): no binding
B2: hTRF1 (endogenous, HeLa cells) (other)
chain: AEDVSSAAPSPRRCADGRDADPTEEQMAETERNDEEQFECQELLECQVQVGAPEEEEEEEEDAGLVAEAEAVAAGWMLDFLCLSLCRAFRDGRSEDFRRTRNSAEAIIHGLSSLTACQLRTIYICQFLTRIAAGKTLDAQFENDERITPLESALMIWGSIEKEHDKLHEEIQNLIKIQAIAVCMENGNFKEAEEVFERIFGDPNSHMPFKSKLLMIISQKDTFHSFFQHFSYNHMMEKIKSYVNYVLSEKSSTFLMKAAAKVVESKRTRTITSQDKPSGNDVEMETEANLDTRKSVSDKQSAVTESSEGTVSLLRSHKNLFLSKLQHGTQQQDLNKKERRVGTPQSTKKKKESRRATESRIPVSKSQPVTPEKHRARKRQAWLWEEDKNLRSGVRKYGEGNWSKILLHYKFNNRTSVMLKDRWRTMKKLKLISSDSED
notes: also called endogenous TRF1; human TRF1

binding result (untagged mTRF2): no binding
B3: FLAG-mTRF1 (mouse TRF) (other, UniProt P70371 2-421, looked up)
chain: AETVSSAARDAPSREGWTDSDSPEQEEVGDDAELLQCQLQLGTPREMENAELVAEVEAVAAGWMLDFLCLSLCRAFRDGRSEDFRRTRDSAEAIIHGLHRLTAYQLKTVYICQFLTRVASGKALDAQFEVDERITPLESALMIWNSIEKEHDKLHDEIKNLIKIQAVAVCMEIGSFKEAEEVFERIFGDPEFYTPLERKLLKIISQKDVFHSLFQHFSYSCMMEKIQSYVGDVLSEKSSTFLMKAATKVVENEKARTQASKDRPDATNTGMDTEVGLNKEKSVNGQQSTETEPLVDTVSSIRSHKNALSQLKHRRAPSDFSRNEARTGTLQCETTMERNRRTSGRNRLCVSENQPDTDDKSGRRKRQTWLWEEDRILKCGVKKYGEGNWAKILSHYKFNNRTSVMLKDRWRTMKRLKLIS
notes: The co-IP construct is 'previously described'; also called FLAG tagged mouse TRF; not shown: FLAG tag
